Assays:
[1] = target: A119 (Homo sapiens (Human), UniProt P0DOX7 1-214); assay: BLI (Octet RED96), antagonist captured on biosensor, ligand in solution
Experimental: (§1) Binding activities of individual bifunctional antagonists to human ligands were measured by biolayer interferometry (BLI) using Octet RED96 (FortéBIO, Pall Corporation, USA). Binding analysis was performed by first capturing the polypeptide bifunctional antagonists to biosensors. To measure the rate of association and dissociation, the bifunctional antagonists-captured biosensors were dipped in wells containing different concentrations of ligands (such as TNF-α, TGF-β1 and TGF-β3) diluted in 1× kinetic buffer for 10 min followed by 10-20 min in 1× kinetic buffer. Note that all the ligands tested were recombinantly produced based on their human sequences. The bifunctional polypeptide antagonists-captured sensors were also submerged in wells containing 1×kinetic buffer to allow single reference subtraction in order to compensate for natural dissociation of the captured bifunctional antagonists. The binding sensorgrams were collected using the 8-channel detection mode on the biosensor. Data were acquired and analyzed using the FortéBIO Data acquisition software v11.1 (FortéBIO, Pall Corporation, USA)

[2] = target: A120 (Homo sapiens (Human), UniProt P0DOX7 1-214); assay: as above
Experimental: as §1

B1: TGF-β3 (ligand)
chain: ALDTNYCFRNLEENCCVRPLYIDFRQDLGWKWVHEPKGYYANFCSGPCPYLRSADTTHSTVLGLYNTLNPEASASPCCVPQDLEPLTILYYVGRTPKVEQLSNMVVKSCKCS
notes: also called Transforming Growth Factor-Beta 3
Kd [1]: ~1 pM
Kd [2]: ~1 pM
